This is an account of results in paper PMC11940275.

The IC50 is the point on the concentration scale where inhibition reaches its midpoint. A higher IC50 goes with lower potency.

The series has as its target SARS-CoV-2 spike protein, Omicron BA.2 (on SmBiT-BA.2 pseudovirus) (SARS-CoV-2 Omicron BA.2) (UniProt P0DTC2).
The sequence “CGCAGCACCCAAGAACAAGGACTGCTTAGGATTGCGATAGGTTCGG [46-mer aptamer]” gave an IC50 of 700 nM.

For “ATCCAGAGTGACGCAGCATCGAGTGGCTTGTTTGTAATGTAGGGTTCCGGTCGTGGGTTGGACACGGTGGCTTAGT [76-mer aptamer]”, the 50% inhibitory concentration (IC50) is 3610 nM.

On to “ATCCAGAGTGACGCAGCATTTCATCGGGTCCAAAAGGGGCTGCTCGGGATTGCGGATATGGACACGT [67-mer aptamer]”, for which the half-maximal inhibitory concentration (IC50) worked out at 1640 nM.
